Earlier results as cited in publication PMC8033747.

Molecular target: CHMP3 (Homo sapiens) (UniProt Q9Y3E7)
Experiment: SPR

Sequence of CHMP3 (Homo sapiens) (Q9Y3E7 2-222): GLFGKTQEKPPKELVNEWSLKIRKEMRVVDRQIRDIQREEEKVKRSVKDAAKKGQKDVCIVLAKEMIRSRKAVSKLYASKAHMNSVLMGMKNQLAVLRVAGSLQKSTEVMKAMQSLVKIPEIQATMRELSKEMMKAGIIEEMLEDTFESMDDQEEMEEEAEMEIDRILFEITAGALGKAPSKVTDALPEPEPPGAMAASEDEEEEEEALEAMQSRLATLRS
Sequence of CHMP2A (O43633 whole entry): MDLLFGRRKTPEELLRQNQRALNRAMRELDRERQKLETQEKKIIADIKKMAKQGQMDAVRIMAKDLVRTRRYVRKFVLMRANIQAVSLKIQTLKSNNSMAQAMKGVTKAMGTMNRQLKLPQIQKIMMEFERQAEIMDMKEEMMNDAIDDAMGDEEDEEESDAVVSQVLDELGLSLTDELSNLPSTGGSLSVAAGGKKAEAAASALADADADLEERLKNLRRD
Sequence of CHMP2B (Q9UQN3 2-213): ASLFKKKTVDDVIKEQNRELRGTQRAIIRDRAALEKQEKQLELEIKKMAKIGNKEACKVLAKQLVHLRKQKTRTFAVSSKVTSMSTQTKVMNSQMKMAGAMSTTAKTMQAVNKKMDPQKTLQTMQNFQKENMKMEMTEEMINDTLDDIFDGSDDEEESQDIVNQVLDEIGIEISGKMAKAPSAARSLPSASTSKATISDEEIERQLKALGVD

| Kd | Substance |
| --- | --- |
| 3.2 µM | CHMP2A (from UniProt O43633) |
| 1.4 µM | CHMP2B (from UniProt Q9UQN3) |
